The record followed here is US20120282643A1.

The experiment concerns the target sulfite reductase tagged with a C-terminal GFP S11 (SEQ ID NO: 16). In words: cell-based or functional assay.

As to “Split-CFP S1-10 (V16I, D21E, Y66W, T205S) (from UniProt P42212 1-214)”, the Final Fluorescence (Ident. E12) was 1070 and the Initial Rate (Ident. E12) amounted to 2040.

For “Split-YFP S1-10 (T203Y, T205A) (from UniProt P42212 1-214)”, the Green Fluorescence (488/510) (clone A3) worked out at 1.8, the Ratio Yellow/Green Fluorescence (clone A3) amounted to 42 and the Yellow Fluorescence (510/532) (clone A3) was 75.7.

“Split-YFP S1-10 (T65L, V176I, T203Y, T205S) (from UniProt P42212 1-214)”: the Green Fluorescence (488/510) (clone A7) turned out to be 2.77, the Ratio Yellow/Green Fluorescence (clone A7) was 28.5 and the Yellow Fluorescence (510/532) (clone A7) was 79.1.

For “Split-YFP S1-10 (T203Y, D210V) (from UniProt P42212 1-214)”, the Green Fluorescence (488/510) (clone E10) was 21.4, the Ratio Yellow/Green Fluorescence (clone E10) is 7.33 and the Yellow Fluorescence (510/532) (clone E10) came to 157.

“Split-YFP S1-10 (T65A, T203Y, T205S) (from UniProt P42212 1-214)”: the Green Fluorescence (488/510) (clone C4) was 7.17, the Ratio Yellow/Green Fluorescence (clone C4) came out at 10.6 and the Yellow Fluorescence (510/532) (clone C4) turned out to be 76.2.

Turning to “Split-CFP S1-10 (D19E, D21N, Y66W, S99T, H148D, T205S)”, the Final Fluorescence (Ident. B9) is 703, the Final Fluorescence (Ident. C12) was found to be 1740, the Initial Rate (Ident. B9) was found to be 2230 and the Initial Rate (Ident. C12) came to 5120.

Consider “Split-YFP S1-10 (T9N, T65L, T203Y, T205S) (from UniProt P42212 1-214)”, for which the Green Fluorescence (488/510) (clone C5) stood at 5.07, the Ratio Yellow/Green Fluorescence (clone C5) is 20.9 and the Yellow Fluorescence (510/532) (clone C5) stood at 106.

With “Split-YFP S1-10 (T65G, T203Y) (from UniProt P42212 1-214)”, the Green Fluorescence (488/510) (clone A9) stood at 4.5, the Green Fluorescence (488/510) (clone B2) worked out at 5.85, the Green Fluorescence (488/510) (clone E7) came out at 6.91 and the Ratio Yellow/Green Fluorescence (clone A9) turned out to be 24.3. Moreover, the Ratio Yellow/Green Fluorescence (clone B2) came to 19.5, the Ratio Yellow/Green Fluorescence (clone E7) is 17, the Yellow Fluorescence (510/532) (clone A9) is 109 and the Yellow Fluorescence (510/532) (clone B2) was 114. Further, the Yellow Fluorescence (510/532) (clone E7) turned out to be 117.

Turning to “Split-YFP S1-10 (Y200F, T203Y) (from UniProt P42212 1-214)”, the Green Fluorescence (488/510) (clone B9) came to 14.7, the Ratio Yellow/Green Fluorescence (clone B9) was found to be 10.9 and the Yellow Fluorescence (510/532) (clone B9) was 160.

As to “Split-CFP S1-10 (D19E, D21E, Y66W, H148D, T205S, S208L)”, the Final Fluorescence (Ident. C4) came to 2270, the Final Fluorescence (Ident. G5) amounted to 1360, the Initial Rate (Ident. C4) is 7790 and the Initial Rate (Ident. G5) was 6070.

For the substance “Split-CFP S1-10 (Y66W, H148D, T205S) (from UniProt P42212 1-214)”, the Final Fluorescence (Ident. D1) was 8860, the Final Fluorescence (Ident. D4) was determined as 3740, the Final Fluorescence (Ident. D6) was 4100 and the Final Fluorescence (Ident. D8) amounted to 3750. The Final Fluorescence (Ident. E4) amounted to 3280, the Final Fluorescence (Ident. F8) turned out to be 1310, the Final Fluorescence (Ident. H2) worked out at 6570 and the Initial Rate (Ident. D1) is 14500. The substance also returned an Initial Rate (Ident. D4) of 7990, an Initial Rate (Ident. D6) of 10000, an Initial Rate (Ident. D8) of 8440 and an Initial Rate (Ident. E4) of 7280. For the same substance, the Initial Rate (Ident. F8) is 3820 and the Initial Rate (Ident. H2) was found to be 9060.

For the substance “Split-CFP S1-10 (D21N, Y66W, H148D, T205S) (from UniProt P42212 1-214)”, the Final Fluorescence (Ident. A12) amounted to 990, the Final Fluorescence (Ident. B12) is 1790, the Initial Rate (Ident. A12) worked out at 3060 and the Initial Rate (Ident. B12) was found to be 4900.

For the substance “Split-YFP S1-10 (R80K, T203Y) (from UniProt P42212 1-214)”, the Green Fluorescence (488/510) (clone H1) was determined as 7.41, the Ratio Yellow/Green Fluorescence (clone H1) was 18.7 and the Yellow Fluorescence (510/532) (clone H1) was 138.

Consider “Split-CFP S1-10 (D19E, D21E, Y66W, H148D, T205S)”, for which the Final Fluorescence (Ident. A2) stood at 4110, the Final Fluorescence (Ident. A3) is 1990, the Final Fluorescence (Ident. A6) stood at 5000 and the Final Fluorescence (Ident. A8) turned out to be 2360. The same substance displayed a Final Fluorescence (Ident. A9) of 4990, a Final Fluorescence (Ident. A10) of 4930, a Final Fluorescence (Ident. B1) of 4790 and a Final Fluorescence (Ident. B2) of 3260. This substance also came in with a Final Fluorescence (Ident. B3) of 2360, a Final Fluorescence (Ident. B4) of 1760, a Final Fluorescence (Ident. B5) of 2740 and a Final Fluorescence (Ident. B6) of 2950. In addition, the Final Fluorescence (Ident. C2) was determined as 2250, the Final Fluorescence (Ident. C3) was found to be 2200, the Final Fluorescence (Ident. C5) is 2540 and the Final Fluorescence (Ident. C9) is 1830. The Final Fluorescence (Ident. D5) is 2420, the Final Fluorescence (Ident. D9) is 1340, the Final Fluorescence (Ident. D12) was 3130 and the Final Fluorescence (Ident. E1) was found to be 4830. For the same substance, the Final Fluorescence (Ident. E2) came to 1690, the Final Fluorescence (Ident. E3) is 1980, the Final Fluorescence (Ident. E5) amounted to 1800 and the Final Fluorescence (Ident. E6) was found to be 2560. The Final Fluorescence (Ident. F1) is 4070, the Final Fluorescence (Ident. F2) is 1800, the Final Fluorescence (Ident. F3) was determined as 2290 and the Final Fluorescence (Ident. F4) stood at 1540. In addition, the Final Fluorescence (Ident. F5) came out at 2900, the Final Fluorescence (Ident. F7) amounted to 2850, the Final Fluorescence (Ident. F9) stood at 2710 and the Final Fluorescence (Ident. G1) amounted to 4400. Also, the Final Fluorescence (Ident. G3) worked out at 2410, the Final Fluorescence (Ident. G6) stood at 2580, the Final Fluorescence (Ident. G7) is 2130 and the Final Fluorescence (Ident. H1) stood at 4140. This substance also returned a Final Fluorescence (Ident. H4) of 2360, a Final Fluorescence (Ident. H7) of 3870, a Final Fluorescence (Ident. H8) of 2820 and an Initial Rate (Ident. A2) of 14100. The Initial Rate (Ident. A3) was 8810, the Initial Rate (Ident. A6) stood at 18800, the Initial Rate (Ident. A8) came to 11700 and the Initial Rate (Ident. A9) amounted to 17700. The same substance yielded an Initial Rate (Ident. A10) of 16900, an Initial Rate (Ident. B1) of 15700, an Initial Rate (Ident. B2) of 11900 and an Initial Rate (Ident. B3) of 8260. The same substance displayed an Initial Rate (Ident. B4) of 9110, an Initial Rate (Ident. B5) of 10300, an Initial Rate (Ident. B6) of 10600 and an Initial Rate (Ident. C2) of 7890. The Initial Rate (Ident. C3) is 7950, the Initial Rate (Ident. C5) worked out at 9490, the Initial Rate (Ident. C9) came to 7200 and the Initial Rate (Ident. D5) came out at 8850. In addition, the Initial Rate (Ident. D9) was 7490, the Initial Rate (Ident. D12) turned out to be 12000, the Initial Rate (Ident. E1) was 11700 and the Initial Rate (Ident. E2) came to 7780. For the same substance, the Initial Rate (Ident. E3) was determined as 6770, the Initial Rate (Ident. E5) came to 6370, the Initial Rate (Ident. E6) was determined as 9260 and the Initial Rate (Ident. F1) was 9890. The same substance registered an Initial Rate (Ident. F2) of 6690, an Initial Rate (Ident. F3) of 7600, an Initial Rate (Ident. F4) of 7760 and an Initial Rate (Ident. F5) of 10200. Besides, the Initial Rate (Ident. F7) turned out to be 10000, the Initial Rate (Ident. F9) worked out at 9770, the Initial Rate (Ident. G1) came out at 11000 and the Initial Rate (Ident. G3) was 10800. For the same substance, the Initial Rate (Ident. G6) is 11900, the Initial Rate (Ident. G7) was found to be 9680, the Initial Rate (Ident. H1) is 10000 and the Initial Rate (Ident. H4) was 10400. For the same substance, the Initial Rate (Ident. H7) was 12900 and the Initial Rate (Ident. H8) was found to be 10900.

Take “Split-CFP S1-10 (D19E, Y66W, H148D, T205S) (from UniProt P42212 1-214)”: the Final Fluorescence (Ident. A5) was determined as 2860 and the Initial Rate (Ident. A5) was determined as 9770.

Regarding “Split-YFP S1-10 (T65G, S99F, T203Y, T205S) (from UniProt P42212 1-214)”, the Green Fluorescence (488/510) (clone E11) is 4.51, the Ratio Yellow/Green Fluorescence (clone E11) worked out at 22.5 and the Yellow Fluorescence (510/532) (clone E11) is 101.

Take “Split-YFP S1-10 (C70S, T203Y) (from UniProt P42212 1-214)”: the Green Fluorescence (488/510) (clone F3) was found to be 10.5, the Ratio Yellow/Green Fluorescence (clone F3) was found to be 11.4 and the Yellow Fluorescence (510/532) (clone F3) is 120.

Turning to “Split-YFP S1-10 (S99F, T203Y, T205S) (from UniProt P42212 1-214)”, the Green Fluorescence (488/510) (clone G11) turned out to be 7.47, the Ratio Yellow/Green Fluorescence (clone G11) came out at 18.9 and the Yellow Fluorescence (510/532) (clone G11) came out at 141.

For “Split-CFP S1-10 (D19E, D21N, Y66W, H148D, T205S)”, the Final Fluorescence (Ident. A7) was found to be 2550, the Final Fluorescence (Ident. C6) was determined as 1120, the Final Fluorescence (Ident. C7) was determined as 1730 and the Final Fluorescence (Ident. C8) came out at 1010. Moreover, the Final Fluorescence (Ident. C10) came out at 1720, the Final Fluorescence (Ident. D7) amounted to 744, the Final Fluorescence (Ident. D10) was 1200 and the Final Fluorescence (Ident. E8) was 1140. For the same substance, the Final Fluorescence (Ident. G2) worked out at 1910, the Final Fluorescence (Ident. G8) came to 1420, the Final Fluorescence (Ident. G9) came to 1700 and the Final Fluorescence (Ident. H3) is 2130. In addition, the Final Fluorescence (Ident. H5) stood at 2000, the Final Fluorescence (Ident. H9) was 1340, the Initial Rate (Ident. A7) came to 8100 and the Initial Rate (Ident. C6) came to 3590. This substance registered an Initial Rate (Ident. C7) of 6280, an Initial Rate (Ident. C8) of 4550, an Initial Rate (Ident. C10) of 6180 and an Initial Rate (Ident. D7) of 3120. Also, the Initial Rate (Ident. D10) came to 4290, the Initial Rate (Ident. E8) worked out at 5330, the Initial Rate (Ident. G2) is 3790 and the Initial Rate (Ident. G8) came out at 9440. In addition, the Initial Rate (Ident. G9) came to 7820, the Initial Rate (Ident. H3) came to 6870, the Initial Rate (Ident. H5) came to 5750 and the Initial Rate (Ident. H9) amounted to 7800.
